B1: VL9-7 Cys(mSF) (peptide)
peptide: VMAPRTCFL
modifications: not checked
B2: VL9-3 Cys(mSF) (peptide)
peptide: VMCPRTLFL
modifications: not checked
B3: VL9-4 Cys(mSF) (peptide)
peptide: VMACRTLFL
modifications: not checked
B4: VL9-8 Cys(mSF) (peptide)
peptide: VMAPRTLCL
modifications: not checked

This assay concerns the target HLA-E/B2M complex, refolded and biotinylated ([HLAE(hu)(22-305)]-Avitag + [B2M(h)(21-119)]) (human), P13747. As to the kind of experiment: cross-linking, 10-fold excess over [HLA-E+VL9], 4 h 37 C, LC-MS.
For the molecule B1, the % cross-linking with HLA-E turned out to be 22%.

For the molecule B2, the % cross-linking with HLA-E stood at 73%.

On to B3, for which the % cross-linking with HLA-E worked out at 36%.

For the molecule B4, the % cross-linking with HLA-E stood at 87%.

Source of the values: patent US20250074942A1, “COMPOSITIONS AND METHODS FOR COVALENT PEPTIDE-BASED MODULATORS OF HLA-E” (Calico Life Sciences LLC, priority 2022, published 2025).
